In US20200392252A1 (ALLOGENE THERAPEUTICS, published 2020):

Biological target: T1, FokI catalytic domain protein including a C-terminal 6xHis tag and GSGS linker (Flavobacterium okeanokoites, UniProt P14870 426-579)
T1 construct: also called Fok-1; Fok1
T1 sequence: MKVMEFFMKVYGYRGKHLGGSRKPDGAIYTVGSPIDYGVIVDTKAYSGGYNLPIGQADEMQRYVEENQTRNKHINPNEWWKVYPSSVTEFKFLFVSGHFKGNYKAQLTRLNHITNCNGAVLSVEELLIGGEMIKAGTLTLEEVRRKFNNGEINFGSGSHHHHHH
Experiment: Biacore SPR, antibody as ligand, FokI as analyte

B1: 2299.5D4.C8 (antibody, V domains shown)
VH: QIQLVQSGPELKKPGETVKISCKASGYTFTDYSIHWVKQAPGEGLKWMAWINTETGAPTFADDFKGRLALSLETSANTAYLQINNLKHEDTATYFCAKEGGFYFYAMDYWGQGTSVTVSS
VL: DIVMSQSPSSLAVSAGEKVTMSCKSSQSLLSSRTRKNYLAWYQQKPGQAPKLLISWASTRESGVPDRFTGSGSGTEFTLTISSVQAEDLAVYYCKQSYNLRTFGGGTKLEIK
Kd: < 7.63 nM | koff: < 8.55e-05 s⁻¹ | kon: 11200 M⁻¹ s⁻¹ | t1/2: > 2.25 h

B2: 2299.6B3.B8.B6 (antibody, V domains shown)
VH: QIQLVQSGPELKKPGETVKISCKASGYAFTDYSIHWMKQAPGEGLQWMGWINTETAKPAFGDDFKGRFAFSLETSANTAHLHINNLRTEDTATYFCAKEGGFYFYAMDYWGQGTSVTVSS
VL: DIVMSQSPSSLAVSAGEKVTMNCKSSQSLLSSRTRKNYLAWYQQKPGQSPKLLIYWASTRDSGVPDRFTGSGSGTDFTLTISSVQAEDLAVYYCKQSYNFRTFGGGTKLEIK
Kd: < 8.66 nM | koff: < 8.55e-05 s⁻¹ | kon: 9870 M⁻¹ s⁻¹ | t1/2: > 2.25 h

B3: 2299.6G5.C7 (antibody, V domains shown)
VH: QIQLVQSGPELKKPGETVKISCKASGYTFTDYSIHWVKQAPGKGLKWMGWINTETGAPTFADDFKGRFAFSLETSASTAFLQINNLKNEDTATYFCAKEGGFYFYAMDYWGQGTSLTVSS
VL: DIVMSQSPSSLAVSTGEKVTMSCKSSQSLLSSRTRKNYLAWYQQKPGQAPKLLISWASTRESGVPDRFTGSGSGTDFTLTISSVQAEDLAVYYCKQSFNLRTFGGGTKLEIK
Kd: < 16.2 nM | koff: < 8.55e-05 s⁻¹ | kon: 5270 M⁻¹ s⁻¹ | t1/2: > 2.25 h

B4: 2299.7F11.B4 (antibody, V domains shown)
VH: QIQLVQSGPELKKPGETVKISCKASGYTFTDYSIHWVKQAPGKGLKWMAWINTETGDPTYEDDFKGRFAFSLETSASTAYLQINNLKNEDTATYFCSKEGGFYFYAMDYWGQGTSVTVSS
VL: DIVMSQSPSSLAVSAGEKVTMSCKSSQSLLSSRTRKNYLAWYQQKPGQSPKLLIKWASTRESGVPDRFTGSGSGTDFTLTISSVQAEDLAVYYCKQSYNLRTFGGGTKLEIK
Kd: < 1.13 nM | koff: < 8.55e-05 s⁻¹ | kon: 75700 M⁻¹ s⁻¹ | t1/2: > 2.25 h

B5: 2299.2G3.C6 (antibody, V domains shown)
VH: QIQLVQSGPELKKPGETVKISCKASGYTFTDYSIHWVKQAPGEGLKWMAWINTETGAPTFADDFKGRLALSLETSANTAYLQINNLKHEDTATYFCAKEGGFYFYAMDYWGQGTSVTVSS
VL: DIVMSQSPSSRAVSAGEKVTMSCKSSQSLLSSRTRKNYLAWYQQKPGQAPKMLISWASTREFGVPDRFTGSGFGTDFTLTISSVQGEDLAVYYCKQSYNFRTFGGGTKLEIK
Kd: < 4.83 nM | koff: < 8.55e-05 s⁻¹ | kon: 17700 M⁻¹ s⁻¹ | t1/2: > 2.25 h
